Data taken from paper PMC4333399.

B1: MCB1 DNA (crystal) (dsDNA)
DNA 1: CAATGACGCGTAAG
DNA 2: CTTACGCGTCATTG
B2: MCB1 DNA (SPR) (dsDNA)
DNA 1: CTTACGCGTCATTG
DNA 2: CAATGACGCGTAAG

Key:
PCG2-DBD WT [1] = biological target: T1, PCG2-DBD WT (Magnaporthe oryzae, UniProt G4NA99 1-138); assay: crystal structure; two PCG2-DBD monomers per duplex; SPR (Biacore T100, steady state): 20 mM Tris pH 8.0, 150 mM NaCl, 0.005% Tween20; temperature not stated; details: protein: recombinant; tags: N-terminal 6xHis (pHAT2); chain copies: 2; blunt
PCG2-DBD 12-138 = PCG2-DBD 12-138 (Magnaporthe oryzae, UniProt G4NA99 12-138); assay: SPR; SPR (Biacore T100, steady state): 20 mM Tris pH 8.0, 150 mM NaCl, 0.005% Tween20; temperature not stated; details: protein: recombinant; tags: N-terminal 6xHis; chain copies: 2; label: 5'-biotin on strand S2; blunt
PCG2-DBD 12-128 = PCG2-DBD 12-128 (Magnaporthe oryzae, UniProt G4NA99 12-128); assay: as above; details: protein: recombinant; tags: N-terminal 6xHis; label: 5'-biotin on strand S2; blunt
PCG2-DBD WT [2] = biological target: T1, PCG2-DBD WT; assay: as above; details: protein: recombinant; tags: N-terminal 6xHis (pHAT2); chain copies: 2; label: 5'-biotin on strand S2; blunt
PCG2-DBD 1-128 = PCG2-DBD 1-128 (Magnaporthe oryzae, UniProt G4NA99 1-128); assay: as above; details: protein: recombinant; tags: N-terminal 6xHis; label: 5'-biotin on strand S2; blunt

Row | Binder | binding result (PCG2-DBD WT [1]) | Kd (PCG2-DBD 12-138) | Kd (PCG2-DBD 12-128) | Kd (PCG2-DBD WT [2]) | Kd (PCG2-DBD 1-128)
1 | B1 | binds |  |  |  | 
2 | B2 |  | 1.37 ± 0.45 µM | 48.3 ± 5.2 µM | 0.81 ± 0.03 µM | 29.8 ± 6.3 µM
